Consider 20 molecules from patent US20250313612A1 (Adimab, published 2025).

Sequences and labels used below:
B1: ADI-14465 (antibody, V domains shown)
VH: QVQLLESGAGLLKPSETLSLTCSLSGGSFRDFYWAWIRQAPGRGLEWIGDINDGGNTNHSPSLKSRAILSIDASKRQFSLRLTSVTAADTAVYYCARQRLEHTASGYYMDVWGNGTTVTVSS
VL: QSVLTQPPSVSVDPGETATITCGGANIGSKNVYWYQQRPGQAPVLVVYDDIDRPAGIPDRFTDSSSGNTVTLTIYSVEAVDEADYFCQVWDNSSDQPVFGGGTKLTVL
B2: ADI-14479 (antibody, V domains shown)
VH: QVQLVQSGSEVKQPGASVKVSCKASGYTFSAYHLHWVRQAPGQGLQWLGRINPNSGATSVAHNFQGRVTLTTDTSISTAYMELSSLTSDDSAVYYCARTMWRWLVEGGFENWGQGTLVTVSS
VL: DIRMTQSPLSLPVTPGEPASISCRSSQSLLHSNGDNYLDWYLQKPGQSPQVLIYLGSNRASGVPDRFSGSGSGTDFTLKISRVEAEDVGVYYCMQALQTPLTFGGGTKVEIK
B3: ADI-14463 (antibody, V domains shown)
VH: QVQLVQSGTEVKKPGASVKVSCKASGYIFDHFAITWVRQAPGQGPEWMGWISAYNGRTEDSGKFPGRLTLTTDPATRTAFLELRGLTPDDTAVYYCARDVPVMGAAFLDYWGQGTLVTVSS
VL: EIVLTQSPLSLPVTVGQPASISCRSGQSLEFSDGNTYLTWFHQRPGQSPRRLIYRGSYRDSGVPDRFRGSGSGTTFTLTISRVEAEDVGIYFCMQGTHWPPTFGQGTKVDIK
B4: ADI-14474 (antibody, V domains shown)
VH: QVQLVQSGPEVKKPGASVTISCQASGYIFNHYSITWVRQAPGQGTEWMGWISAYHGKTEYSGKFHGRVTLTTDTGTRTAFLELRDLTSDDTAIYYCARDVPVMGAAFLDYWGQGTLVTVSS
VL: B3 VL with V15L, H42Q, Y54F, D65E, R68S, T75S, V109L, D110E
B5: ADI-14488 (antibody, V domains shown)
VH: EVQLVESGGGLVQPGGSLKLSCTSSGLAFSGSAIHWVRQASGKGLEWVGRIRSKPNSYATEYAASVKGRFTISRDDSQNTAYLQMNSLKAEDTALYYCTLGYCSGDSCSSLRDYWGQGTLVTVSS
VL: QSALIQPASVSGSPGQSITISCTGTSSDVGGYNYVSWYQQHPGKAPKLMIYDVSNRPSGVSNRFSGSKSGNTASLTISGLQAEDEADYYCSSYTSSSTLVFGGGTKVTVL
B6: ADI-14478 (antibody, V domains shown)
VH: EVQLVESGGGLVKPGGSLRLSCAASGFTFSDYYMSWIRQAPGKGLEWVSYISISSSYTDYADSVKGRFTISRDNAKNSLYLQMNSLRAEDTAVYYCARDQRDQAVAGRWFDPWGQGTLVTVSS
VL: QSVVTQPPSVSGAPGQRVTISCTGSSSNIGAGFDVHWYQQVPGTAPKLLIYANTNRPSGVPDRFSGSKSGTSASLAITGLKAEDEADYYCQSYDNSLSGSAVFGGGTKVTVL
B7: ADI-14520 (antibody, V domains shown)
VH: QVQLQQWGAGLVKPSETLSLTCAVYGGSFSGYQWHWFRQPPGKGLEWIGEINHSEITHYNASLKSRVTLSIDTSKNQFSLNLTSVTAADTAVYYCARASSGSYNFEYWFDPWGQGTLVTVSS
VL: QSVLTQPPSVSVAPGKTAWLTCGGNNIGSKRVHWYRQKPGQAPVLVVYDDYDRPSGTPERVSGSNSGNTATLTISRVEDGDEGDYYCQVWDDPSDHAVFGGGTKLTVL
B8: ADI-14482 (antibody, V domains shown)
VH: B7 VH with Y25S, S30R, H35N, S54G, I56Y, T68S, V92M, Y94F, S102T
VL: B7 VL with Q1S, S2Y, S29N, R36Q, D52G, P58S, D79A, G83A, D84E, K104Q
B9: ADI-14456 (antibody, V domains shown)
VH: QVQLVQSGAEVKKPGASVKVSCEASEYSFSGDYVHWVRQAPGQGLEWMGWIKAVNGGANYAQKFHGRVTMTTDSSKSTVYLEMSRLTPADTAIYFCAKDRAASVHVPAGAFDLWGQGTLVTVSS
VL: DIQMTQSPSSLSAYVGDRVSITCRASQSIDNFLNWYRQRPGKAPELLIYAASTLQGGVPSRFSGSGSGTHFTLTISSLQPEDFATYYCQQSFTIPSITFGQGTRLEIK
B10: ADI-14464 (antibody, V domains shown)
VH: B9 VH with E26A, K63R, K76R, M83L, S84T, A89D, I93V, A110E
VL: B9 VL with M4V, Y14S, D30S, F92Y
B11: ADI-14462 (antibody, V domains shown)
VH: QVQLVQSGGGVVQPGGSLRLSCAAYGLTFRAYGMHWVRQAPGKGLEWVAVSWYDGTNEVYADSVKGRFRISRDDSRSTLYLQMNSLRGEDTAVYYCATERMWEENSSSFGWWGRGTLVTVSS
VL: QAVLTQPASVSGSPGQSITISCTGSSSDVGGSNFVSWYQQHPGKAPKLMVYDVNHRPSGISNRFSGSKSGNTASLTISGLQAEDEADYYCTSYTSRSSYVFGSGTKVTVL
B12: ADI-14451 (antibody, V domains shown)
VH: EVQLVESGAEVRKPGASVKVSCKASGYIFINYYIHWVRQAPGQGLEWMGWINPNSGASNHAQTFEGRITMTTDTSSNTAYMELSRLREDDTAVYYCARSQQLLVITDYSLDYWGLGTLVTVSS
VL: SSELTQDPAVSVALGQTVRITCHGDTLRNYYPAWYQQKPGQAPVLVVSDRNTRPSGIPDRFSVSTSGNTASLTITGAQAEDEGDYYCNCRDSSGHRLVFGGGTKLTVL
B13: ADI-14521 (antibody, V domains shown)
VH: QVQLVQSGTEVKKPGASVKVSCLTSGYTFTHFGISWVRQAPGQGLEWMGWFSAYNGNTKYAQKFQGRITLTIDTSTSIAYLELRSLRSDDTAVYYCARDPPSLTAAGTLDYWGQGTLVTVSS
VL: DIRLTQSPLSLPVTLGQPASISCSSNQSLVYSDGNTYLSWFQQRPGQSPRRLIYKVSDRDSGVPDRFSGSGSGTDFTLKISRVEAEDVGVYYCMQATDWPRTFGQGTKVEIK
B14: ADI-14467 (antibody, V domains shown)
VH: EVQLLESGSEVKKPGTSVKVSCETSGYIFTNYAISWVRQAPGQGLEWLGWISGYNGQTYYAQKVQGRLTLTTDTSTMTAYMDLTSLRSDDTAIYYCVRDVPVISGASTMDYWGQGTLVTVSS
VL: B13 VL with R3V, L4M, L15H, S24R, N26S, Q43L, D58N, D98Q
B15: ADI-14455 (antibody, V domains shown)
VH: QVQLVQSGAEVKKPGASVKVSCKASGYTFTSYGTSWVRQAPGQGLEWMGWISAYNGNTNYAQNLQGRVTMTTDTSTSTSYMELRSLRSDDTAVYYCARDVPVIAAGTMDYWGQGTLVTVSS
VL: B13 VL with R3V, L4M, S7T, S24R, N26S, S39N, D58N, A96G, T97P, D98H
B16: ADI-14487 (antibody, V domains shown)
VH: QVQLVQSGAEVKKPGASVRVSCKASGYTFSSYYIHWVRQAPGQGPEWLGWINPKSGDTIYSYKFQGRVTLTRETSITTAYMELTSLRSDDTAVYYCARVTWQWLVLGGFDYWGQGTLVTVSS
VL: DIVLTQSPLSLPVTPGEPASISCRSSLSLLHSNGDNYLDWYLQKPGQSPQLLIYLGSNRASGVPDRFSGSGSGTDFTLKISRVEAEDVGVYYCMQALHTPLTFGGGTKLEIK
B17: ADI-14448 (antibody, V domains shown)
VH: EVQLVESGGGLVKPGGSLRLSCAASGSSFRYSYMSWVRQAPGKGLQWVASISPSSTYTDYADSVKGRSTISRDHDKISLQVNSLRGDDTAVYYCVRHMNLVMGPFAFDIWGRGTMVTVSS
VL: QSVVTQPPSLSGAPGQRITISCTGSSSNIGAGYDVNWYQQLPGTAPKLLIYAKTNRPSGVPERFSGSESGTSASLAITGLQPEDEADYYCQSYDRIGMYVFGTGTKLTVL
B18: ADI-14441 (antibody, V domains shown)
VH: QVQLVQSGAEVKKPGSSVKISCKASGGTFNSQAIHWVRQAPGQDLEWMGNIIPGFGSPNSAQNFQGRVTFIADDSTGAAYMDLSSLKSEDTAVYYCATAGWFGESVHLDSWGQGTLVTVSS
VL: not shown
B19: ADI-14480 (antibody, V domains shown)
VH: QVQLVQSGAEVKKPGSSMSISCRASGGSFNNQAIHWIRQAPGEGLEWMGNIIPNFGSQNYAPEFVGRVSFNADASAGTAYMDLSDLTSQDTAVYYCATAGWFGELVRFDSWGQGTLVTVSS
VL: DIVMTQSPATLSVSPGGRATLSCRASETITTNLAWYQQKPGQAPRLLIYGASTRATGIPARFSGSGSGTEFTLTINSLQSEDFAVYYCQQYNNWPPLTFGGGTKLEIK
B20: ADI-14490 (antibody, V domains shown)
VH: QVQLVQSGGGVVQPGRSLRLSCAASGFTFSNYGMHWVRQAPGKGLEWVAVIWYDGSNKYYADSVKGRFTISRDNSKNTVYLQMNSLRADDTAVYYCARDAIFGSGPNWFDPWGQGTLVTVSS
VL: QSVLTQPPSVSGAPGQRVTISCTGSSSNIGAGYDVHWYQQLPGTAPKLLIYGSSNRPSGVPDRFSGSKSGTSASLAITGLQAEDEADYYCQSYESSLRGWVFGGGTKVTVL

Where a chain is given by its changes, count along the chain named.

One assay addresses RSV F protein of recombinant mKate-RSV, subtype A (strain A2) (Respiratory syncytial virus subtype A …, UniProt P03420 26-574). Put plainly: cell-based or functional assay.
B1: the “Neut IC50 subtype A” value is 0.431 µg/mL.

On to B2, for which the “Neut IC50 subtype A” value turned out to be 4.09 µg/mL.

On to B3, for which the “Neut IC50 subtype A” value turned out to be 0.009 µg/mL.

Regarding B4, the “Neut IC50 subtype A” value was 0.019 µg/mL.

As to B5, the “Neut IC50 subtype A” value is greater than 10 µg/mL.

Consider B6, for which the “Neut IC50 subtype A” value was 0.163 µg/mL.

B7: the “Neut IC50 subtype A” value came to 0.029 µg/mL.

In the case of B8, the “Neut IC50 subtype A” value was 0.024 µg/mL.

Turning to B9, the “Neut IC50 subtype A” value was greater than 10 µg/mL.

For B10, the “Neut IC50 subtype A” value is greater than 10 µg/mL.

On to B11, for which the “Neut IC50 subtype A” value was 2.71 µg/mL.

With B12, the “Neut IC50 subtype A” value was 0.02 µg/mL.

As for B13, the “Neut IC50 subtype A” value was 0.083 µg/mL.

As to B14, the “Neut IC50 subtype A” value was 0.06 µg/mL.

As to B15, the “Neut IC50 subtype A” value stood at 0.012 µg/mL.

Turning to B16, the “Neut IC50 subtype A” value was greater than 10 µg/mL.

On to B17, for which the “Neut IC50 subtype A” value turned out to be 0.043 µg/mL.

In the case of B18, the “Neut IC50 subtype A” value was greater than 10 µg/mL.

With B19, the “Neut IC50 subtype A” value was greater than 10 µg/mL.

As for B20, the “Neut IC50 subtype A” value amounted to 1.02 µg/mL.

Another assay concerns the target RSV F protein of recombinant mKate-RSV, subtype B (18537) (Respiratory syncytial virus subtype B …, UniProt P13843 26-574). The assay is described as follows: cell-based or functional assay.
Turning to B1, the “Neut IC50 subtype B” value was 0.124 µg/mL.

As to B2, the “Neut IC50 subtype B” value was 22.7 µg/mL.

As to B3, the “Neut IC50 subtype B” value worked out at 0.036 µg/mL.

Consider B4, for which the “Neut IC50 subtype B” value stood at 0.016 µg/mL.

For the molecule B5, the “Neut IC50 subtype B” value was greater than 10 µg/mL.

With B6, the “Neut IC50 subtype B” value was 0.057 µg/mL.

In the case of B7, the “Neut IC50 subtype B” value came out at 0.045 µg/mL.

As to B8, the “Neut IC50 subtype B” value came to 0.031 µg/mL.

In the case of B9, the “Neut IC50 subtype B” value was found to be 0.372 µg/mL.

Take B10: the “Neut IC50 subtype B” value was 0.161 µg/mL.

For B11, the “Neut IC50 subtype B” value was found to be 2.63 µg/mL.

Consider B12, for which the “Neut IC50 subtype B” value was 0.06 µg/mL.

For the molecule B13, the “Neut IC50 subtype B” value was found to be 0.123 µg/mL.

Take B14: the “Neut IC50 subtype B” value is 0.065 µg/mL.

On to B15, for which the “Neut IC50 subtype B” value was 0.036 µg/mL.

As to B16, the “Neut IC50 subtype B” value was greater than 10 µg/mL.

B17: the “Neut IC50 subtype B” value came out at 0.066 µg/mL.

On to B18, for which the “Neut IC50 subtype B” value stood at 3.92 µg/mL.

For the molecule B19, the “Neut IC50 subtype B” value came to 2.76 µg/mL.

For B20, the “Neut IC50 subtype B” value was found to be 0.113 µg/mL.
